For experiment [1], the target named is T1, human calcitonin receptor (human, UniProt P30988 25-474).
T1 construct: whole, on cells; Used as cell membranes; also called hCTR; hCT
T1 sequence (looked up): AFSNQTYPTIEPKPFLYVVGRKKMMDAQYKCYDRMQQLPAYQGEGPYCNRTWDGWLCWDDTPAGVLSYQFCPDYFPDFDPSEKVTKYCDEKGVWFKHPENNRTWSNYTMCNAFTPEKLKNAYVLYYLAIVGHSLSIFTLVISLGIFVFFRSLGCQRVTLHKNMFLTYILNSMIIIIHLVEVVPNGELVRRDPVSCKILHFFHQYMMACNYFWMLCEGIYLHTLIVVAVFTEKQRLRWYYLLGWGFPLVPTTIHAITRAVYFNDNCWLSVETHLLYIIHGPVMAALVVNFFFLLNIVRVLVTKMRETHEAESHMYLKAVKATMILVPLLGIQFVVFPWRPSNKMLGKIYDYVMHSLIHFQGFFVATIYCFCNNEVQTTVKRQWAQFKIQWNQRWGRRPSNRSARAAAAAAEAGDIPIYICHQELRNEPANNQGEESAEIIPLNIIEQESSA
Kind of experiment: SPA competition on BHK cell membranes, 125I-calcitonin as radioligand (Assay VII). A digest of the protocol:
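BHK hCTR membranes 35 ng/μL + SPA beads 0.05 mg/well; buffer 50 mM Hepes pH 7.4, 1 mM CaCl2, 5 mM MgCl₂, 0.1% OA, 0.02% Tween20. 120 min, 25° C., shaking. Scintillation count; IC50 by one-site binding competition.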

In experiment [2] the target is T1, human calcitonin receptor. In words: ratio of hCTR IC50 to hAmylin-R IC50 (reference: human amylin receptor). A digest of the protocol:
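Competition binding by SPA with cell membranes (35 ng/μL) and SPA beads in 50 mM Hepes pH 7.4 with 1 mM CaCl2, 5 mM MgCl2, 0.1% OA and 0.02% Tween20. Incubated 120 min at 25 °C with shaking, then counted.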

These results are taken from patent US20140087995A1 (published 2014).

A word on the IC50: it is the concentration needed to halve the response being measured.

Numbered stars: 1 amine (or outer) side, 2 acyl side, 3 side chain; on linkers, the order of the positions; unused ones are H or OH. Bridge positions count the residues as written; N and C are the ends. Side chains are listed from the residue outwards. Ends that are not written are not given here. * marks the point of attachment. C20 diacid = O=C(O)CCCCCCCCCCCCCCCCCCC(=O)*; γGlu = O=C(O)[C@H](CCC(=O)[*:2])N[*:1]; AEEA = NCCOCCOCC(=O)O

B1: N^ε1-[2-[2-[2-[[2-[2-[2-[[(4S)-4-carboxy-4-(19-carboxynonadecanoylamino)butanoyl]amino]ethoxy]ethoxy]acetyl]amino]ethoxy]ethoxy]acetyl]-[Arg17,Pro21,Pro27,His34 … (peptide)
peptide: K([AEEA-AEEA-γGlu-C20 diacid])CNTATCATQRLANFLRHSSPNFGAIPSSTNVGHNTY-NH2
modifications: disulfide 2-7; N-terminus assumed
SMILES: CC[C@H](C)[C@H](NC(=O)[C@H](C)NC(=O)CNC(=O)[C@H](Cc1ccccc1)NC(=O)[C@H](CC(N)=O)NC(=O)[C@@H]1CCCN1C(=O)[C@H](CO)NC(=O)[C@H](CO)NC(=O)[C@H](Cc1c[nH]cn1)NC(=O)[C@H](CCCNC(=N)N)NC(=O)[C@H](CC(C)C)NC(=O)[C@H](Cc1ccccc1)NC(=O)[C@H](CC(N)=O)NC(=O)[C@H](C)NC(=O)[C@H](CC(C)C)NC(=O)[C@H](CCCNC(=N)N)NC(=O)[C@H](CCC(N)=O)NC(=O)[C@@H](NC(=O)[C@H](C)NC(=O)[C@@H]1CSSC[C@H](NC(=O)[C@@H](N)CCCCNC(=O)COCCOCCNC(=O)COCCOCCNC(=O)CC[C@H](NC(=O)CCCCCCCCCCCCCCCCCCC(=O)O)C(=O)O)C(=O)N[C@@H](CC(N)=O)C(=O)N[C@@H]([C@@H](C)O)C(=O)N[C@@H](C)C(=O)N[C@@H]([C@@H](C)O)C(=O)N1)[C@@H](C)O)C(=O)N1CCC[C@H]1C(=O)N[C@@H](CO)C(=O)N[C@@H](CO)C(=O)N[C@H](C(=O)N[C@@H](CC(N)=O)C(=O)N[C@H](C(=O)NCC(=O)N[C@@H](Cc1c[nH]cn1)C(=O)N[C@@H](CC(N)=O)C(=O)N[C@H](C(=O)N[C@@H](Cc1ccc(O)cc1)C(N)=O)[C@@H](C)O)C(C)C)[C@@H](C)O
notes: also called compound 97
Take B1: in experiment [1], the IC50 was determined as 0.0589 µM. In experiment [2], the “Ratio hCT/hAmylin binding” value stood at 104.

B2: N^-1-[(4S)-4-carboxy-4-(19-carboxynonadecanoylamino)butanoyl]-Gly[Arg1,Ala14,Arg17,Pro21,Pro27,His34]-h-amylin (peptide)
peptide: {C20 diacid-γGlu}-GRCNTATCATQRLAAFLRHSSPNFGAIPSSTNVGHNTY-NH2
modifications: disulfide 3-8
SMILES: CC[C@H](C)[C@H](NC(=O)[C@H](C)NC(=O)CNC(=O)[C@H](Cc1ccccc1)NC(=O)[C@H](CC(N)=O)NC(=O)[C@@H]1CCCN1C(=O)[C@H](CO)NC(=O)[C@H](CO)NC(=O)[C@H](Cc1c[nH]cn1)NC(=O)[C@H](CCCNC(=N)N)NC(=O)[C@H](CC(C)C)NC(=O)[C@H](Cc1ccccc1)NC(=O)[C@H](C)NC(=O)[C@H](C)NC(=O)[C@H](CC(C)C)NC(=O)[C@H](CCCNC(=N)N)NC(=O)[C@H](CCC(N)=O)NC(=O)[C@@H](NC(=O)[C@H](C)NC(=O)[C@@H]1CSSC[C@H](NC(=O)[C@H](CCCNC(=N)N)NC(=O)CNC(=O)CC[C@H](NC(=O)CCCCCCCCCCCCCCCCCCC(=O)O)C(=O)O)C(=O)N[C@@H](CC(N)=O)C(=O)N[C@@H]([C@@H](C)O)C(=O)N[C@@H](C)C(=O)N[C@@H]([C@@H](C)O)C(=O)N1)[C@@H](C)O)C(=O)N1CCC[C@H]1C(=O)N[C@@H](CO)C(=O)N[C@@H](CO)C(=O)N[C@H](C(=O)N[C@@H](CC(N)=O)C(=O)N[C@H](C(=O)NCC(=O)N[C@@H](Cc1c[nH]cn1)C(=O)N[C@@H](CC(N)=O)C(=O)N[C@H](C(=O)N[C@@H](Cc1ccc(O)cc1)C(N)=O)[C@@H](C)O)C(C)C)[C@@H](C)O
notes: 38 residues
Take B2: the IC50 in experiment [1] was determined as 0.0292 µM. The “Ratio hCT/hAmylin binding” value in experiment [2] worked out at 68.6.

In the case of {C20 diacid-γGlu}-GRCNTATCATQRLAAFLRHSSPNFGAIPSSTNVGPNTY-NH2 (disulfide 3-8, 38 residues), the IC50 in experiment [1] amounted to 0.003 µM. For the same molecule, the “Ratio hCT/hAmylin binding” value in experiment [2] was found to be 26.5.

B3: N^-1-[(4S)-4-carboxy-4-(19-carboxynonadecanoylamino)butanoyl]-Gly[Arg1,His14,Arg17,Pro21,Pro27,Pro34]-h-amylin (peptide)
peptide: {C20 diacid-γGlu}-GRCNTATCATQRLAHFLRHSSPNFGAIPSSTNVGPNTY-NH2
modifications: disulfide 3-8
SMILES: CC[C@H](C)[C@H](NC(=O)[C@H](C)NC(=O)CNC(=O)[C@H](Cc1ccccc1)NC(=O)[C@H](CC(N)=O)NC(=O)[C@@H]1CCCN1C(=O)[C@H](CO)NC(=O)[C@H](CO)NC(=O)[C@H](Cc1c[nH]cn1)NC(=O)[C@H](CCCNC(=N)N)NC(=O)[C@H](CC(C)C)NC(=O)[C@H](Cc1ccccc1)NC(=O)[C@H](Cc1c[nH]cn1)NC(=O)[C@H](C)NC(=O)[C@H](CC(C)C)NC(=O)[C@H](CCCNC(=N)N)NC(=O)[C@H](CCC(N)=O)NC(=O)[C@@H](NC(=O)[C@H](C)NC(=O)[C@@H]1CSSC[C@H](NC(=O)[C@H](CCCNC(=N)N)NC(=O)CNC(=O)CC[C@H](NC(=O)CCCCCCCCCCCCCCCCCCC(=O)O)C(=O)O)C(=O)N[C@@H](CC(N)=O)C(=O)N[C@@H]([C@@H](C)O)C(=O)N[C@@H](C)C(=O)N[C@@H]([C@@H](C)O)C(=O)N1)[C@@H](C)O)C(=O)N1CCC[C@H]1C(=O)N[C@@H](CO)C(=O)N[C@@H](CO)C(=O)N[C@H](C(=O)N[C@@H](CC(N)=O)C(=O)N[C@H](C(=O)NCC(=O)N1CCC[C@H]1C(=O)N[C@@H](CC(N)=O)C(=O)N[C@H](C(=O)N[C@@H](Cc1ccc(O)cc1)C(N)=O)[C@@H](C)O)C(C)C)[C@@H](C)O
notes: 38 residues
Take B3: the IC50 in experiment [1] is 0.00787 µM. Moreover, in experiment [2], the “Ratio hCT/hAmylin binding” value worked out at 36.2.

B4: N^ε1-[2-[2-[2-(19-carboxynonadecanoylamino)ethoxy]ethoxy]acetyl]-[Arg17,Pro21,Pro27,His34]-h-amylin (peptide)
peptide: K([AEEA-C20 diacid])CNTATCATQRLANFLRHSSPNFGAIPSSTNVGHNTY-NH2
modifications: disulfide 2-7; N-terminus assumed
SMILES: CC[C@H](C)[C@H](NC(=O)[C@H](C)NC(=O)CNC(=O)[C@H](Cc1ccccc1)NC(=O)[C@H](CC(N)=O)NC(=O)[C@@H]1CCCN1C(=O)[C@H](CO)NC(=O)[C@H](CO)NC(=O)[C@H](Cc1c[nH]cn1)NC(=O)[C@H](CCCNC(=N)N)NC(=O)[C@H](CC(C)C)NC(=O)[C@H](Cc1ccccc1)NC(=O)[C@H](CC(N)=O)NC(=O)[C@H](C)NC(=O)[C@H](CC(C)C)NC(=O)[C@H](CCCNC(=N)N)NC(=O)[C@H](CCC(N)=O)NC(=O)[C@@H](NC(=O)[C@H](C)NC(=O)[C@@H]1CSSC[C@H](NC(=O)[C@@H](N)CCCCNC(=O)COCCOCCNC(=O)CCCCCCCCCCCCCCCCCCC(=O)O)C(=O)N[C@@H](CC(N)=O)C(=O)N[C@@H]([C@@H](C)O)C(=O)N[C@@H](C)C(=O)N[C@@H]([C@@H](C)O)C(=O)N1)[C@@H](C)O)C(=O)N1CCC[C@H]1C(=O)N[C@@H](CO)C(=O)N[C@@H](CO)C(=O)N[C@H](C(=O)N[C@@H](CC(N)=O)C(=O)N[C@H](C(=O)NCC(=O)N[C@@H](Cc1c[nH]cn1)C(=O)N[C@@H](CC(N)=O)C(=O)N[C@H](C(=O)N[C@@H](Cc1ccc(O)cc1)C(N)=O)[C@@H](C)O)C(C)C)[C@@H](C)O
notes: also called compound 91
For the molecule B4, the IC50 in experiment [1] came out at 0.012 µM. In addition, the “Ratio hCT/hAmylin binding” value in experiment [2] stood at 101.

B5: N^ε1-[(4S)-4-carboxy-4-(19-carboxynonadecanoylamino)butanoyl]-[Arg17,Pro21,Pro27,His34]-h-amylin (peptide)
peptide: K([γGlu-C20 diacid])CNTATCATQRLANFLRHSSPNFGAIPSSTNVGHNTY-NH2
modifications: disulfide 2-7; N-terminus assumed
SMILES: CC[C@H](C)[C@H](NC(=O)[C@H](C)NC(=O)CNC(=O)[C@H](Cc1ccccc1)NC(=O)[C@H](CC(N)=O)NC(=O)[C@@H]1CCCN1C(=O)[C@H](CO)NC(=O)[C@H](CO)NC(=O)[C@H](Cc1c[nH]cn1)NC(=O)[C@H](CCCNC(=N)N)NC(=O)[C@H](CC(C)C)NC(=O)[C@H](Cc1ccccc1)NC(=O)[C@H](CC(N)=O)NC(=O)[C@H](C)NC(=O)[C@H](CC(C)C)NC(=O)[C@H](CCCNC(=N)N)NC(=O)[C@H](CCC(N)=O)NC(=O)[C@@H](NC(=O)[C@H](C)NC(=O)[C@@H]1CSSC[C@H](NC(=O)[C@@H](N)CCCCNC(=O)CC[C@H](NC(=O)CCCCCCCCCCCCCCCCCCC(=O)O)C(=O)O)C(=O)N[C@@H](CC(N)=O)C(=O)N[C@@H]([C@@H](C)O)C(=O)N[C@@H](C)C(=O)N[C@@H]([C@@H](C)O)C(=O)N1)[C@@H](C)O)C(=O)N1CCC[C@H]1C(=O)N[C@@H](CO)C(=O)N[C@@H](CO)C(=O)N[C@H](C(=O)N[C@@H](CC(N)=O)C(=O)N[C@H](C(=O)NCC(=O)N[C@@H](Cc1c[nH]cn1)C(=O)N[C@@H](CC(N)=O)C(=O)N[C@H](C(=O)N[C@@H](Cc1ccc(O)cc1)C(N)=O)[C@@H](C)O)C(C)C)[C@@H](C)O
notes: also called compound 77
B5: in experiment [1], the IC50 was determined as 0.0507 µM. The “Ratio hCT/hAmylin binding” value in experiment [2] came to 118.
